This test deals with HER-3 (human, on cells) (human) (UniProt P21860). Description: indirect FACS Scatchard analysis on cells.

The substance U1-46 (antibody) had a Kd of 13.8 nM.

For orientation: Kd means the equilibrium constant for the complex coming apart.

(Values after US20110229406A1.)
